Results taken from paper PMC3281842 (2012).
Square brackets hold non-standard residues; d marks the D form. Ends that are not written are not given here. Arg(Me2a) = CN(C)C(=N)NCCC[C@H](N)C(=O)O

Target: TDRD3 (aa 520–633) (human, UniProt Q9H7E2 520-633)
Assay: ITC

## TG[Arg(Me2a)]ARARA [PIWIL1_R4me2a peptide (TGRme2aARARA)]
  Kd: > 500 µM
